# Measurements: paper PMC6265447, “The bacterial Mre11–Rad50 homolog SbcCD cleaves opposing strands of DNA by two chemically distinct nuclease reactions”
# B1: 25 bp DNA (dsDNA)
# DNA 1: CGCTTTATCAGAAGCCAGACATTAA
# DNA 2: TTAATGTCTGGCTTCTGATAAAGCG
# B2: 30 bp DNA (dsDNA)
# DNA 1: CGCTTTATCAGAAGCCAGACATTAACGCTT
# DNA 2: AAGCGTTAATGTCTGGCTTCTGATAAAGCG
# Molecular target: SbcC;SbcD H84Q (Escherichia coli;Escherichia coli, UniProt P13458;P0AG76 1-1048;1-400, |H84Q)
# Assay: fluorescence anisotropy; 1 mM ATP, 5 mM Mg2+, 1 mM Mn2+; 25 mM Tris pH 7.5, 50 mM KCl, 5 mM MgCl2, 1 mM MnCl2, 1 mM DTT, 1 mM ATP where stated; 5 nM DNA, 2-1000 nM SbcCD, 20 min at 25 C
# Conditions: protein: recombinant;recombinant; tags: ;C-terminal His6; chain copies: 2;2; label: 5' 6-FAM; blunt
row,Binder,Kd
1,B1,146 ± 46 nM
2,B2,43 ± 7 nM
